Data reported in paper PMC3014985.
Read-outs that look alike come from different tables or passages of the source.

Key:
Assay in all cases: SEC
[1] = target: 6His-TOSV NP (Toscana virus nucleoprotein with N-terminal hexahistidine tag), refolded (Toscana virus (strain AR2005)) (UniProt P21701)
[2] = target: RVFV NP (Rift Valley fever virus nucleoprotein after removal of the TRX-6His tag) (Rift Valley fever virus (strain Smithburn)) (UniProt P21700)
[3] = target: TOSV NP (Toscana virus nucleoprotein after removal of the TRX-6His tag) (Toscana virus (strain AR2005)) (UniProt P21701)
[4] = target: TOSV NP (Toscana virus nucleoprotein after removal of the TRX-6His tag) (Toscana virus (strain AR2005)) (UniProt P21701); remark: listed apart in the source

6His-TOSV NP (Toscana virus nucleoprotein with N-terminal hexahistidine tag), refolded (from UniProt P21701 1-253) (natural protein)
stoichiometry N [1]: 3

RVFV NP (Rift Valley fever virus nucleoprotein after removal of the TRX-6His tag) (from UniProt P21700 1-245) (natural protein)
stoichiometry N [2]: 3

TOSV NP (Toscana virus nucleoprotein after removal of the TRX-6His tag) (from UniProt P21701 1-253) (natural protein)
stoichiometry N [3]: 6 | stoichiometry N [4]: 3
